“And” between values parts separate entries of the source, which are not always exact repeats. Identical values can stand only once.
How the values were obtained:
[1] = target: PscA, 82-kDa core subunit of the green sulfur bacterial reaction center (GsbRC) (Chlorobaculum tepidum TLS); assay: cryo-EM structure
[2] = target: T1, Fenna–Matthews–Olson (FMO) protein (Chlorobaculum tepidum TLS, UniProt Q46393 1-366); assay: cryo-EM structure
T1 sequence (looked up): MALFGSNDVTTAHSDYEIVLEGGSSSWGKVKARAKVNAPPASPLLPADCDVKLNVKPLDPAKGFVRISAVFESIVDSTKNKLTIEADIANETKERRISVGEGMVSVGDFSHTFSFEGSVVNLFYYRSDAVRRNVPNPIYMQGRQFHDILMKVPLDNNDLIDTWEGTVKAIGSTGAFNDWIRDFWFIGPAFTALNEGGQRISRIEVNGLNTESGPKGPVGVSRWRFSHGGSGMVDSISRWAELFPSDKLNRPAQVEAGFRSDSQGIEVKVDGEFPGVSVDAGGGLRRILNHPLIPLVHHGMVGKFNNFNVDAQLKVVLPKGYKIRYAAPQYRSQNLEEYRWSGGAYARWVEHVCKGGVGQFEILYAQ

[3] = target: reaction center of the green sulfur bacterium Chlorobaculum tepidum (GsbRC) (Chlorobaculum tepidum TLS) (UniProt O07091)

For “PscA, 82-kDa core subunit of the green sulfur bacterial reaction center (GsbRC) (natural protein)”, the stoichiometry N [1] was 2.

B1: PscD, 17-kDa protein of GsbRC (natural protein, Chlorobaculum tepidum TLS, UniProt Q8KEP5 1-143, looked up)
chain: MQPQLSRPQTASNQVRKAVSGPWSGNAVHKAEKYFITSAKRDRDGKLQIELVPASGRRKLSPTPEMIRRLIDGEIEIYILTTQPDIAIDMNKEIIDMENRYVIDFDKRGVKWTMREIPVFYHEGKGLCVELHNKIYTLDQFFK
B1: binds [2].

B2: Fenna–Matthews–Olson (FMO) protein (natural protein)
chain: T1 sequence (looked up)
For B2, the stoichiometry N [3] was 2 and 1.

Reference: article PMC9945994 (Proceedings of the National Academy of Sciences of the …, 2023)
